Sequences and labels used below:
B1: Azoarcus group I ribozyme (parent)
chain: GUGCCUUGCGCCGGGAAACCACGCAAGGGAUGGUGUCAAAUUCGGCGAAACCUAAGCGCCCGCCCGGGCGUAUGGCAACGCCGAGCCAAGCUUCGGCGCCUGCGCCGAUGAAGGUGUAGAGACUAGACGGCACCCACCUAAGGCAAACGCUAUGGUGAAGGCAUAGUCCAGGGAGUGGCGAAAGUCACACAAACCGG

In the data set the parent is B1. The data set is described as follows: reverse-splicing fitness (ratio to wild type); higher = more active; in vitro selection; Mg2+ level not given. In a few lines:
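An in vitro group I ribozyme library with randomized positions was T7-transcribed and gel-purified. In triplicate, 10 pmol RNA in EPPS pH 7.5 was reacted with 50 pmoles of a 30-nt RNA substrate for 1 h at 37 °C across several added MgCl2 levels (1–48 mM), then stopped with EDTA. Products were reverse transcribed from a substrate-complementary primer, PCR-amplified and sequenced (HiSeq 4000). Fitness is a variant's read proportion after selection over that before, normalised to wild type.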
Consider GUGCCUUGCGCCGGGAAACCACGCAAGGGAUGGUGUCAAAUUCGGCGAAACCUAAGCGCCCGCCCGGGCGUAUGGCAACGCUGAGCCAAGCUUCGGCGCCUGCGCCGAUGAAGGUGUAGCGACUAGACGGCACCCACCUAAGGCGAACGCUAUGGUGAAGGCAUAGUCUAGGGAGUGGCGAAAGUCACACAAACCGG, for which the reverse-splicing fitness came out at 0.0217. As to GUGCCUUGCGCCGGGAAACCACGCAAGGGAUGGUGUCAAAUUCGGCGAAACCUAAGCGCCCGCCCGGGCGUAUGGCAACGCUGAGCCAAGCUUCGGCGCCUGCGCCGAUGAAGGUGUAGCGACUAGACGGCACCCACCUAAGGCGAACGCUAUGGUGAAGGCAUAGUCUAGGGAGAGGCGAAAGUCACACAAACCGG, the reverse-splicing fitness is 0.0177. As for GUGCCUUGCGCCGGGAAACCACGCAAGGGAUGGUGUCAAAUUCGGCGAAACCUAAGCGCCCGCCCGGGCGUAUGGCAACGCUGAGCCAAGCUUCGGCGCCUGCGCCGAUGAAGGUGUAGCGACUAGACGGCACCCACCUAAGGCGAACGCUAUGGUGAAGGCAUAGUCUAGGGAGCGGCGAAAGUCACACAAACCGG, the figure is 0.0171; as for GUGCCUUGCGCCGGGAAACCACGCAAGGGAUGGUGUCAAAUUCGGCGAAACCUAAGCGCCCGCCCGGGCGUAUGGCAACGCUGAGCCAAGCUUCGGCGCCUGCGCCGAUGAAGGUGUAGCGACUAGACGGCACCCACCUAAGGCGAACGCUAUGGUGAAGGCAUAGUCUAGGGAGGGGCGAAAGUCACACAAACCGG, 0.00344; as for GUGCCUUGCGCCGGGAAACCACGCAAGGGAUGGUGUCAAAUUCGGCGAAACCUAAGCGCCCGCCCGGGCGUAUGGCAACGCUGAGCCAAGCUUCGGCGCCUGCGCCGAUGAAGGUGUAGCGACUAGACGGCACCCACCUAAGGCUAACGAUAUGGUGAAGGCAUAGUCAAGGGAGGGGCGAAAGUCACACAAACCGG, 0.00386. As to GUGCCUUGCGCCGGGAAACCACGCAAGGGAUGGUGUCAAAUUCGGCGAAACCUAAGCGCCCGCCCGGGCGUAUGGCAACGCUGAGCCAAGCUUCGGCGCCUGCGCCGAUGAAGGUGUAGCGACUAGACGGCACCCACCUAAGGCUAACGAUAUGGUGAAGGCAUAGUCAAGGGAGAGGCGAAAGUCACACAAACCGG, the reverse-splicing fitness was found to be 0.0094. On to GUGCCUUGCGCCGGGAAACCACGCAAGGGAUGGUGUCAAAUUCGGCGAAACCUAAGCGCCCGCCCGGGCGUAUGGCAACGCUGAGCCAAGCUUCGGCGCCUGCGCCGAUGAAGGUGUAGCGACUAGACGGCACCCACCUAAGGCUAACGAUAUGGUGAAGGCAUAGUCAAGGGAGCGGCGAAAGUCACACAAACCGG, for which the reverse-splicing fitness worked out at 0.00669.

On to GUGCCUUGCGCCGGGAAACCACGCAAGGGAUGGUGUCAAAUUCGGCGAAACCUAAGCGCCCGCCCGGGCGUAUGGCAACGCUGAGCCAAGCUUCGGCGCCUGCGCCGAUGAAGGUGUAGCGACUAGACGGCACCCACCUAAGGCUAACGCUAUGGUGAAGGCAUAGUCCAGGGAGUGGCGAAAGUCACACAAACCGG, for which the reverse-splicing fitness is 0.155. As to GUGCCUUGCGCCGGGAAACCACGCAAGGGAUGGUGUCAAAUUCGGCGAAACCUAAGCGCCCGCCCGGGCGUAUGGCAACGCUGAGCCAAGCUUCGGCGCCUGCGCCGAUGAAGGUGUAGCGACUAGACGGCACCCACCUAAGGCUAACGAUAUGGUGAAGGCAUAGUCAAGGGAGUGGCGAAAGUCACACAAACCGG, the reverse-splicing fitness is 0.00683. To GUGCCUUGCGCCGGGAAACCACGCAAGGGAUGGUGUCAAAUUCGGCGAAACCUAAGCGCCCGCCCGGGCGUAUGGCAACGCUGAGCCAAGCUUCGGCGCCUGCGCCGAUGAAGGUGUAGCGACUAGACGGCACCCACCUAAGGCUAACGAUAUGGUGAAGGCAUAGUCGAGGGAGUGGCGAAAGUCACACAAACCGG belongs 0.00588; to GUGCCUUGCGCCGGGAAACCACGCAAGGGAUGGUGUCAAAUUCGGCGAAACCUAAGCGCCCGCCCGGGCGUAUGGCAACGCUGAGCCAAGCUUCGGCGCCUGCGCCGAUGAAGGUGUAGCGACUAGACGGCACCCACCUAAGGCGAACGCUAUGGUGAAGGCAUAGUCCAGGGAGCGGCGAAAGUCACACAAACCGG, 0.0715; to GUGCCUUGCGCCGGGAAACCACGCAAGGGAUGGUGUCAAAUUCGGCGAAACCUAAGCGCCCGCCCGGGCGUAUGGCAACGCUGAGCCAAGCUUCGGCGCCUGCGCCGAUGAAGGUGUAGCGACUAGACGGCACCCACCUAAGGCGAACGCUAUGGUGAAGGCAUAGUCCAGGGAGAGGCGAAAGUCACACAAACCGG, 0.0488. As to GUGCCUUGCGCCGGGAAACCACGCAAGGGAUGGUGUCAAAUUCGGCGAAACCUAAGCGCCCGCCCGGGCGUAUGGCAACGCUGAGCCAAGCUUCGGCGCCUGCGCCGAUGAAGGUGUAGCGACUAGACGGCACCCACCUAAGGCGAACGCUAUGGUGAAGGCAUAGUCCAGGGAGGGGCGAAAGUCACACAAACCGG, the reverse-splicing fitness was determined as 0.00954. For GUGCCUUGCGCCGGGAAACCACGCAAGGGAUGGUGUCAAAUUCGGCGAAACCUAAGCGCCCGCCCGGGCGUAUGGCAACGCUGAGCCAAGCUUCGGCGCCUGCGCCGAUGAAGGUGUAGCGACUAGACGGCACCCACCUAAGGCUAACGAUAUGGUGAAGGCAUAGUCCAGGGAGUGGCGAAAGUCACACAAACCGG, the reverse-splicing fitness is 0.021. For GUGCCUUGCGCCGGGAAACCACGCAAGGGAUGGUGUCAAAUUCGGCGAAACCUAAGCGCCCGCCCGGGCGUAUGGCAACGCUGAGCCAAGCUUCGGCGCCUGCGCCGAUGAAGGUGUAGCGACUAGACGGCACCCACCUAAGGCUAACGAUAUGGUGAAGGCAUAGUCGAGGGAGAGGCGAAAGUCACACAAACCGG, the reverse-splicing fitness turned out to be 0.00898.

Source of the values: the RNAGym collection of RNA variant scans (doi:10.1093/molbev/msab373).
